In patent publication US20240157023A1 one finds fibroblast spread area on soft elastic Fn4G hydrogels (3 days) and average fibroblast spread area on Fn9*10 hydrogels (all stiffness and viscoelasticity groups, 3 days) data, which are given here for two substances.

The target of test [1] is αvβ3 integrin on human lung fibroblasts (human) (UniProt P06756). The test is described as follows: cell-based or functional assay.
Test [2] deals with α5β1 integrin on human lung fibroblasts (human) (UniProt P08648). The test is described as follows: cell-based or functional assay.
Sequence of UniProt P08648 (P08648 42-1049, chain 1 of 2): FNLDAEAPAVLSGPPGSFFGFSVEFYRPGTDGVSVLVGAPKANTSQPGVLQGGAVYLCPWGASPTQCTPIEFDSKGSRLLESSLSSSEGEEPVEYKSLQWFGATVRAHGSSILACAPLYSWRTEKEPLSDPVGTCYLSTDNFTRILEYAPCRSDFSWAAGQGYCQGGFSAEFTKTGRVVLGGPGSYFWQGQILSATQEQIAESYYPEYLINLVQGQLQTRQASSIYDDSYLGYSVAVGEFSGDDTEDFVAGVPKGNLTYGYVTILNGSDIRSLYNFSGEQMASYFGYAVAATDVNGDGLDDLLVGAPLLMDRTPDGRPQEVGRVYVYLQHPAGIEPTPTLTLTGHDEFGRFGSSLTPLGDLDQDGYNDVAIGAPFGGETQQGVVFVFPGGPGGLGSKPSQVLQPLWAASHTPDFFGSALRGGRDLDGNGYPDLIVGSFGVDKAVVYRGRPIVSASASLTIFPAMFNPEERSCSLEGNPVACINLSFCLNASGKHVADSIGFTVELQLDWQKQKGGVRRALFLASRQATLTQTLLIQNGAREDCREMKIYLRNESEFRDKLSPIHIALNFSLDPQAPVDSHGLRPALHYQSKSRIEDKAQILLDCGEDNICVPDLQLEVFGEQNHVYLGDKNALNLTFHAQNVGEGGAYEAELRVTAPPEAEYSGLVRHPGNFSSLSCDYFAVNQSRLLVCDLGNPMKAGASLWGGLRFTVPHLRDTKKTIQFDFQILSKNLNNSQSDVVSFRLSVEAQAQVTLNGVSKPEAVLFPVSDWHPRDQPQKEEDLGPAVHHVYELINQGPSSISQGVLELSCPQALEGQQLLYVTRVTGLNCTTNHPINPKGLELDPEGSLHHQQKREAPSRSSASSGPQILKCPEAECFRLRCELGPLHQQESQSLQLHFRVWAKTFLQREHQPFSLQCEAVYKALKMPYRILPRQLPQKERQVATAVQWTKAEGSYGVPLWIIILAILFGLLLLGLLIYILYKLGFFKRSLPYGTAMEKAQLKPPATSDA
Sequence of UniProt P08648 (P05556 21-798, chain 2 of 2, further chain): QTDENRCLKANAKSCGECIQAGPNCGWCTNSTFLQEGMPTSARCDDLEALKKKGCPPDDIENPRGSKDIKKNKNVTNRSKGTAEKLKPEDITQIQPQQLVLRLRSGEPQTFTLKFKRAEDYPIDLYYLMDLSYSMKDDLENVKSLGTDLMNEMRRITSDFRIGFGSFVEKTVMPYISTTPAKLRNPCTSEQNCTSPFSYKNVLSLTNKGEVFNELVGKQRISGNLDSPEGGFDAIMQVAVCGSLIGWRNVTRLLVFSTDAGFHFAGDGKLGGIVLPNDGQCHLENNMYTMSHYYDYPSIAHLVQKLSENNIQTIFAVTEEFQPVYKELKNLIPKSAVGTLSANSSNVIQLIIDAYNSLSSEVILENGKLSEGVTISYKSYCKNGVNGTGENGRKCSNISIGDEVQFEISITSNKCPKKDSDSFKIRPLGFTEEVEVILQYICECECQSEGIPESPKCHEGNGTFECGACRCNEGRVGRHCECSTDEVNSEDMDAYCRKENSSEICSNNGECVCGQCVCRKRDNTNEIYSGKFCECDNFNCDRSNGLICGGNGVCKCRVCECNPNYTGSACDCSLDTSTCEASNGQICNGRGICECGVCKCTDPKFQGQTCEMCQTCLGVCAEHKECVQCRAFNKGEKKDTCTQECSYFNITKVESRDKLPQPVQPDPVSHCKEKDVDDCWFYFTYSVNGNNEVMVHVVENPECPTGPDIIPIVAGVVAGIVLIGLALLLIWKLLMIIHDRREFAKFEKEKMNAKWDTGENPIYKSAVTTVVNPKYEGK

Sequence of UniProt P06756 (P06756 31-1048, chain 1 of 2): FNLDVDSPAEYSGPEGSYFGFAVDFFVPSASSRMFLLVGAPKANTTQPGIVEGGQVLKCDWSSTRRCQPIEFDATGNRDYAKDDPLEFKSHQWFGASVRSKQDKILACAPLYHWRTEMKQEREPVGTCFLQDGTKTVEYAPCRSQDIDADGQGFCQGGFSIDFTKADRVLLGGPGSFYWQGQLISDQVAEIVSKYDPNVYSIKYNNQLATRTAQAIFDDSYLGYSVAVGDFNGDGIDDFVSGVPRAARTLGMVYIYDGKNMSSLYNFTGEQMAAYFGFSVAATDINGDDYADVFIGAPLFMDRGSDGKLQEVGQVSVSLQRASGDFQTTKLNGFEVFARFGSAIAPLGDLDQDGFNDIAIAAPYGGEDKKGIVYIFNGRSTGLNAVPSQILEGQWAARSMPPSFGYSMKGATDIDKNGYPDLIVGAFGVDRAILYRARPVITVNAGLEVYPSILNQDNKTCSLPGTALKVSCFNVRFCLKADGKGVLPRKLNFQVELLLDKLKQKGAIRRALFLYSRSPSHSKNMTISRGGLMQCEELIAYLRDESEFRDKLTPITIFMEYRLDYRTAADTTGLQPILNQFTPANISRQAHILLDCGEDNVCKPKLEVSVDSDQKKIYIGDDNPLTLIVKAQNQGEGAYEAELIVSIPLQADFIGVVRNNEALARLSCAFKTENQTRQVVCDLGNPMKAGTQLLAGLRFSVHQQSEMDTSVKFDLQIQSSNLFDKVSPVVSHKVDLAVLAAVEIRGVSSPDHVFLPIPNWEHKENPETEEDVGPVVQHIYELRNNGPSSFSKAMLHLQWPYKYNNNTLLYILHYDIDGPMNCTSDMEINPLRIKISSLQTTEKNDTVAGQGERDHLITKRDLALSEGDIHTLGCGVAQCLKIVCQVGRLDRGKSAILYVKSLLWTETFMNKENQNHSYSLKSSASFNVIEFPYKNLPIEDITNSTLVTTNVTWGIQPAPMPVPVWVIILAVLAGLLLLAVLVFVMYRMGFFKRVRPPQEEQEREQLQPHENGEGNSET
Sequence of UniProt P06756 (P05106 27-788, chain 2 of 2, further chain): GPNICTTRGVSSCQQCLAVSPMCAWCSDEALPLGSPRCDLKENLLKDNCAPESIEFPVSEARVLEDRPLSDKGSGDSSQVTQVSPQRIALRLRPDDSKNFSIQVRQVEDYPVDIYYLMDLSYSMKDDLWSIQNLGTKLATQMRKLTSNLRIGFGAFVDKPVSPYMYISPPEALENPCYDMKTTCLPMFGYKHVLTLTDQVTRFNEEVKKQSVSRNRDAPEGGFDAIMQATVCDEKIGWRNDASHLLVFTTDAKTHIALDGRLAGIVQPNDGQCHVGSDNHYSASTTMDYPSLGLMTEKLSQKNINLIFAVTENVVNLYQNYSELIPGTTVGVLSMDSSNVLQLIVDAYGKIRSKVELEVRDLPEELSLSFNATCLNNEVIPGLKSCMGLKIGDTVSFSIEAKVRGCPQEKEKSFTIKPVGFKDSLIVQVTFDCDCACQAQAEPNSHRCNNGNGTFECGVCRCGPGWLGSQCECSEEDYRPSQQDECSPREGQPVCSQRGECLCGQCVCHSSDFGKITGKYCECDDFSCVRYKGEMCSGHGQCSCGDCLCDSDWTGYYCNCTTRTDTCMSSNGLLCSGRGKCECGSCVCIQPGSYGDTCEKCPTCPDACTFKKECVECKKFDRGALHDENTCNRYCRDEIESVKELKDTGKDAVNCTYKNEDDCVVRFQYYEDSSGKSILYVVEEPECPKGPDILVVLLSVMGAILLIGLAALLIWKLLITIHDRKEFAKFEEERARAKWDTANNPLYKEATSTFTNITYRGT

On to “Fn4G (recombinant fibronectin fragment of FnIII9 and FnIII10 with four glycine residues inserted in the linker region between them) (ligand)”, for which the fibroblast spread area on soft elastic Fn4G hydrogels (3 days) in test [1] is 2060 µm^2.

Consider “Fn9*10 (recombinant fibronectin fragment of FnIII9 and FnIII10 with a leucine to proline point mutation at position 1408) (ligand)”, for which the average fibroblast spread area on Fn9*10 hydrogels (all stiffness and viscoelasticity groups, 3 days) in test [2] is 780 µm^2.
